# According to the RNAGym collection of RNA variant scans (doi:10.1073/pnas.2313332121):
# Variants at the floor of the assay were thinned out.
# B1: TPR 5TU (parent)
# chain: GGAUCUUCUCGAUCUAACAAAAAAGACAAAUCUGCCACAAAGCUUGAGAGCAUCUUCGGAUGCAGAGGCGGCAGCCUUCGGUGGCGCGAUAGCGCCAACGUUCUCAACUAUGACACGCAAAACGCGUGCUCCGUUGAAUGGAGUUUAUCAUG
# Variants of: B1
# Assay: polymerase ribozyme fitness, log enrichment relative to wild type (log ratio); higher = more active; in vitro selection for triplet polymerase activity
# How it was run: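 For each subunit of a heterodimeric triplet polymerase ribozyme, a mutant library was built by PCR and transcribed, then taken through a single in vitro selection round in triplicate. Selection involved annealing to a biotinylated primer, the partner subunit and triplets, incubation frozen at −7 °C, gel excision of extended constructs, capture on streptavidin beads and RT-PCR. Genotypes were retained after Illumina sequencing of inputs and outputs only with ≥10 input reads and ≥1 read in each output. Fitness is defined as the logarithm of a genotype's enrichment relative to wild-type enrichment, using inverse-variance-weighted averages across replicates, with the logarithm taken to base 2.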
row,Variant,polymerase ribozyme fitness (log ratio)
1,U9G A22G U31G A41G A91U C93U U135G,≤ -4.2
2,G11C C38G C87A C95U G100U C105U C118A C129G G133U,≤ -4.2
3,A12C C57A,-0.21
4,C10G A107C,≤ -4.2
5,U9C C27G U44G C85U C93G,≤ -4.2
6,C10U C14G U15G A29C C38U G58A A91G U127G C149U,≤ -4.2
7,G11C C93A,-3.87
8,G11A A30G A41C A91U C95G G140C,≤ -4.2
9,C10G G11U A28C A37G G46U G88U C96U U102G C105U,≤ -4.2
10,U9G C75U A150G,≤ -4.2
11,C10U A17G A23C A24C A26G U31G A39U U44A C54G C57G C79A C96U G124A,≤ -4.2
12,C10G C57A C108A A115G U134A G136U,≤ -4.2
13,G11A C85U U130G,≤ -4.2
14,C10U A23G U82G C95A,≤ -4.2
15,G11U C38G G46A,-2.87
16,G11C A20G A47C,-2.54
17,A12C A66C,≤ -4.2
18,U9A U53C A64U C87A G136U A150G,≤ -4.2
19,C10G A17U A37C C93U,-4.18
20,G11A U44A G48A C57U C96U,≤ -4.2
21,A12C A22C U82A G126A,0.264
22,C10A G25A A29U A89C G92U C108U A113U G117C,≤ -4.2
23,U9G U90C U148G,≤ -4.2
24,C10U C96A C125A,-3.69

row,Variant,polymerase ribozyme fitness (log ratio)
1,C10A A12U A28C A29C A107G,≤ -4.2
2,G11U A26G C54U A142C,≤ -4.2
3,C10U A37U G50A A73U A122G,≤ -4.2
4,G11C A17U A23U C38U C95U A138G,≤ -4.2
5,C10G G92A U111G A150C,≤ -4.2
6,U9G A16U C32A C85G U135C G152U,≤ -4.2
7,A12C A29G C93U U104A U134A,≤ -4.2
8,C10G G11U C79G G92U A110G C123G U130G A138G U146A,≤ -4.2
9,C10U G58A U109G,-3.43
10,G11U A60C C76U,-3.53
11,C10A A39C C54U C76U C87A,≤ -4.2
12,C10A C85A,-3.53
13,C10G U77C U90A A119G A137G,≤ -4.2
14,C10G C93A A97U C116U,≤ -4.2
15,G11U G94A G133C,-2.79
16,C10G U53A,-3.48
17,C10U A12U A21C A39U G71A A106C C125G G141A,≤ -4.2
18,C10U U31A C57A U61A U77C C95A C99U C116U,≤ -4.2
19,G11C G46U U55A C87U C93U U127G A138C U145A,≤ -4.2
20,U9G C38U U44C G46A U56A C79G C96A A142G,≤ -4.2
21,C10A C51G A52C G59A C75G,≤ -4.2
22,U9G G86U A97U C108G,≤ -4.2
23,C10U A52C U55A A97G A98G C129U,≤ -4.2
24,C10U G46C G124A,≤ -4.2

row,Variant,polymerase ribozyme fitness (log ratio)
1,C10A A52C C63U A91G A113U,≤ -4.2
2,G11U G50C A73G,≤ -4.2
3,G11U G70U G83C A122G G143C,≤ -4.2
4,C10G A26U A107U A115U C129A U148G,≤ -4.2
5,C10G G42A C57U C85A C108U,≤ -4.2
6,U9A G83A,-4.06
7,G11A C123U A142U,-1.6
8,G11C C32G C54U C57U C79G C87G A110G,≤ -4.2
9,U9G U15A A30U U33G G42C U101A C105G A110U C118U A119G U139A A147C A150G,≤ -4.2
10,A12C C43A C57A G84A U139G A147U,≤ -4.2
11,C10U A20U U44A C79U C87A,≤ -4.2
12,C10U A21U C54A U55A C95U U102G A106C G141C,≤ -4.2
13,C10G A40G A49C U102G G128A,≤ -4.2
14,C10A U45A C69U C72U,≤ -4.2
15,U9C A52C G67A G74U G86U C93U A115G,≤ -4.2
16,G11U C85A G86U U134G A150G,≤ -4.2
17,G11U A12U A30U U55A C85U C95U A142U,≤ -4.2
18,C10U C14U C54U C72U U78A C79U G94C A97U,≤ -4.2
19,G11A A20C A21U A52G U55C G94C C116U,-4.05
20,G11C G25C A41C U78A C99G,-4.09
21,U9G C32A A40G A52G,≤ -4.2
22,G11A C96G,-1.49
23,C10U A37U C57G G58U C87G G140U U145A,≤ -4.2
24,C10U U82A C87G A89U A142U,≤ -4.2

row,Variant,polymerase ribozyme fitness (log ratio)
1,C10A C32G C38U C54U A142U,-4.12
2,C10G A21G G59A,≤ -4.2
3,U9G A19U,-4.09
4,U9C U15G A17U A21U C27G U56A G68A,≤ -4.2
5,U9C U33G A39U U55A C57U A91C C95A G140U,≤ -4.2
6,G11C G92U,-1.84
7,U9G A73G,-4.11
8,C10U C18U A39U A49U U61A G68U U82G A110U G133A,≤ -4.2
9,G11C G59A A60C,-3.14
10,C10U U15C A39U G48C C76A C85G G88A U90G G140U,≤ -4.2
11,C10A A24C C51U G141U,≤ -4.2
12,C10U A21G G48A G83C G94U U144A,≤ -4.2
13,A12C A22G C54A G70U G100A C116G G117A U135G,≤ -4.2
14,C10U C32G A39U U55A C95G C96A C149U,≤ -4.2
15,G11A A12G A52G U56A G81U,-2.09
16,C10G C14G G25C G59U C95U A110G,≤ -4.2
17,A12C A21C C35A G58U U135G,-4.1
18,U9G A39G U53A G83C C87A C108G U151A,≤ -4.2
19,C10U A52G G67U C69A,≤ -4.2
20,U9A U31G C36A C93G C103G G140C,≤ -4.2
21,G11U A16G C36A A49C C95G C118U G133U,≤ -4.2
22,G11A G50A C63U C93U,-1.77
23,G11C A30U U82C,≤ -4.2
24,C10A A22C A73U C79G C87A A113G,≤ -4.2

row,Variant,polymerase ribozyme fitness (log ratio)
1,C10U A30U U33G C51A A64C A91G C118U U145C,≤ -4.2
2,C10G A22G C63U G81U G94C A147G U148A,≤ -4.2
3,G11U A26U U82A C93A,≤ -4.2
4,G11U C32A C54U C57U G92C U148G U151G,≤ -4.2
5,C10U C32U C35U A49C C51A C87A G141A,≤ -4.2
6,G11C A16U G42U A113C,≤ -4.2
7,U9C A26U C54U G92A,≤ -4.2
8,G11U U31C U53A A66G C85A C87A,≤ -4.2
9,G11A U55G U56A U102A,-3.42
10,G11C C93A C125U,≤ -4.2
11,C10U A39C U77A G84A C95U A120U,≤ -4.2
12,C10G A23U U56A C93U,≤ -4.2
13,C10G G84U,-3.9
14,C10U G84A G126U,-4.02
15,C10U A19U C32G G80A G88U A115G U146A,≤ -4.2
16,U9C A21U A28C G50C G94U U102C,-4.16
17,U9C A21C C57A C93A A115C,-4
18,C10U A16U A28G G46A A91G C93A U111G G152U,≤ -4.2
19,A12C A29C G81U C87A,≤ -4.2
20,U9G G11U U44A G50C C87A C105G,≤ -4.2
21,A12C C36U C85U A147U,-1.81
22,G11U A97G C103A U146A,-4.09
23,C10A A19G C57A G59A U82A C85U G141C,≤ -4.2
24,C10G A20U A28U C35U C51G A64C G84U C123U,≤ -4.2

row,Variant,polymerase ribozyme fitness (log ratio)
1,U9C U31C A41C G48C A52U C93U C95A G140A,≤ -4.2
2,U9A U13G A29C U82G G84U A91G G94U G128C G133A A138U,≤ -4.2
3,C10A C14G U53A C57A G84A C99U G126A,≤ -4.2
4,C10A A40C U56A C108U G143C,≤ -4.2
5,C10G U53A C54A G80C G84A C96G U104C C108U U145G,≤ -4.2
6,U9G U33G G34U G92A C105G C132U U139C,≤ -4.2
7,G11A A16U A21U A60U C63A C85A G126U,≤ -4.2
8,G11C C93U U101G G128U,-3.85
9,A12C A19U G80U A89G C96A,≤ -4.2
10,G11U C27G C35A C95U C131G G152U,-3.68
11,C10A G48C G59A C103G U104A C105U A113C U146A,≤ -4.2
12,U9C G11U A16G C51G C93G G112U,≤ -4.2
13,U9A G48A G80C C87G A107U A113U,≤ -4.2
14,G11A A41C G83C C123G,-2.58
15,C10G U55A U148A A150C,≤ -4.2
16,G11A C96U C116U,-1.68
17,G11U G88C,≤ -4.2
18,G11C A37C U82G C85G C105U C116G,≤ -4.2
19,C10G A91C C95U C103G C116G,≤ -4.2
20,C10U A17G A26U G46C U55A C85U A106U G126A G133C,≤ -4.2
21,U9G C75G C76A C85G,≤ -4.2
22,C10G A12G G84A U109G G141A,≤ -4.2
23,G11U U31A A60G C93A,-3.94
24,C10U A89U C95U,-4.15

row,Variant,polymerase ribozyme fitness (log ratio)
1,G11A A137C C149U,≤ -4.2
2,G11C U31A A40U,-0.204
3,C10G A47G A49G G71A C87U A97U A106G A107C U111G U134C,≤ -4.2
4,C10U A17C,-2.07
5,C10U A17U,-3.22
6,C10U G59C C85A C116G A138C,≤ -4.2
7,C10A A66C C85U A98G A121C,≤ -4.2
8,G11U C14G U127G,≤ -4.2
9,U9G G42C G58C C95U,≤ -4.2
10,G11U G94C A106G,-1.62
11,A12C A24G G50C C72U C87G U111C,≤ -4.2
12,A12C A30C A60G C75G G86U U90G A97C,≤ -4.2
13,U9C G11A A23U C36U C51A G92C G117C,≤ -4.2
14,G11C A120U,-2.55
15,G11A A23C A29C A30U C36U U44A A73U G81A C125U G143U,≤ -4.2
16,C10G C116A,-2.96
17,A12C C51U C85A A150U,-0.931
18,A12C A40C C87A C93U G94C A110G A142U,≤ -4.2
19,C10G C54A G71A,≤ -4.2
20,C10G A19U C32A C93U U127A,≤ -4.2
21,U9C A28G C38A C54G G88C C103A,≤ -4.2
22,C10G C43G U55A G83A G92C C125A,≤ -4.2
23,G11A G59C,-0.989
